Assay results from the RNAGym collection of RNA variant scans (doi:10.1073/pnas.2313332121).

B1: TPR t1 (parent)
chain: GACCAAUCUGCCCUCAGAGCUCGAGAACAUCUUCGGAUGCAGAGGAGGCAGGCUUCGGUGGCGCGAUAGCGCCAACGUCCUCAACCUCCAAUGCAUCCCACCACAUGAUGAUGCCUGAAGAGCCUUGGUUUUUUG

Variants of: B1
Assay: polymerase ribozyme fitness, log enrichment relative to wild type (log ratio); higher = more active; in vitro selection for triplet polymerase activity
How it was run: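 Genotype fitness is the logarithm of its enrichment divided by wild-type enrichment, using inverse-variance-weighted averages of replicates. That logarithm is base 2. Enrichment was measured by Illumina sequencing of input and output libraries from one triplicate in vitro selection round, with frozen incubation at −7 °C, on PCR-built, transcribed mutant libraries of each subunit of a heterodimeric triplet polymerase ribozyme, retaining genotypes with ≥10 input reads and ≥1 read per output.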

Variant | polymerase ribozyme fitness (log ratio)
GAUCAAUCUGCCCUCAGAGCUCGAGAAUAUCUUCGGAUGCGGUGGCGGCAGGCUUCGGUGGCGCGAUAGCGCCAACGUCCUCAACCUCCAACGUAUCCCACCACAUGAUGAUGCCUGAAGAGCUUUGGUUUUUUG [C3U C28U A41G A43U A46C U92C C94U C124U] | -4.65
GAUCAAUCUGCCAUCAGAGCUCGAGAACAUCUUCGGAUGCAGAGGAGGCAGGCUUCGGUGACGCGAUAGCGCCAACGUCCUCAACCUCCAAUGCAUCUCACCACAUGAUGAUGCCUGAAGAGCCUUGGUUUUUUG [C3U C13A G61A C98U] | -3.6
GAUCAAUCUGCCCUCAGAGCUCGAGAAAAUCUUCGGAUGCAGAGGAGGCAGGCUUCGGUGGCGCGAUAGCGGCAACGUCCUCAACCUCCAAUGCAUCCCACCACAUGAUGAAGCCUGAAGAGCCUUGGUUUUUUG [C3U C28A C72G U112A] | -3.66
GAUCAAUCUGCCCUCAGAGAUCGAGAACAUCUUCGGAUGCAGAGGAGGCAGGCUUCGGUGGCGCGAUAGCGCCAACGUCCUCAACCUCCAAUGCAUCCCACCACAUGAUGAUGCCUGAAGAGCCUUGGUUUUUUG [C3U C20A] | -2.93
GAUCAAUCUGCCUUCAGAGCUCGAGAACAUCUUCGGAUGCAGAGGAGGCAGGCUUCGGUGGCACGAUAGCGCCAACGUCCUCAACCUCCAAUGCAUCCCACCACAUGAUGAUGCCUGAAGAGCCUUGGUUUUUUG [C3U C13U G63A] | -1.19
GAUCAAUCUGCCCUCAGAGCUCGAGAACAUCUUCGGAUGUAGAGGAGGCAGGCUUCGGUGGUGCGAUAGCGCCAUCGUCCUCAACCUCCAAUCCAGCCCACCACAUGAUGAUGCCUGAAGAGCCUUGGUUUUUUG [C3U C40U C62U A75U G93C U96G] | -3.29
GAUCAAUCUGCCCUCAGAGGUCGAGAACAUCUUCGGAUGCAGAGGAGGCAGGAUUCGGUGGCGCGAUAGCGCCAACGUCCUCAACCUCCAAUGCAUUCCACCACAUGAAGAUGCCUGAAGAGCCUUGGUUUUUUG [C3U C20G C53A C97U U109A] | -3.06
GAUCAAUCUGCCCUUAGAGCUCGAGAACAUCUUCGGAUGCAGAGGAGGCAGGCUUCGGUGGCACGAUAGCGCCAACGUCCUCAACCUCCAAUGCAUCCCAACACAUGAUGAUGCCUGAAGAGCCUUGGUUUUUUG [C3U C15U G63A C101A] | -3.66
GAUCAAUCUGCCUUCAGAGCUCGAGAACAUCUUCGGAUGCAGAGGAGGCAGGCUUCGGUGGCGCGAUAGCGCCAACGUCCUCAACCUCCAAUGCAUCCCACCAAAUGAUGAUGCCUGAAGAGCCUUGGUUUUUUG [C3U C13U C104A] | -1.31
GAUCAAUCUGCUCUCAGUGCUCGAGAACAUCUUCGGAUGCAGAGGAGGCAGGCUUCGGUGGCGCGAUAGCGCCAACGUCCUCAACCAUCAAUGCAUCCCACCACAUGAUGAUGCCUGAAGAGCCUUGGUUUUUUG [C3U C12U A18U U87A C88U] | -2.52
GAUCAAUCUGCACUCAGAGCCCGAGAACAUCUUCGAAUGCAGAGGAGGCAGGCUUCGGUGGCUCGAUAGCGCCAACGUCCUCAACCUCCAAUGCAUCCCACCACAUGAUGAUGCCUGAAGAGCCUUGGUUUUUUG [C3U C12A U21C G36A G63U] | -3.34
GAUCAAUCUGCCUUCAGAGCUCGAGAACAUCUUCGGAUGCAGAGGAGGCAGGCUUCGGUGGCGCGAUAGUGCCAACGUCCUCAACCUCCAAUGCAUCCCACCACAUGAUGAUGCCUGAAGAGCCUUGUUUUUUUG [C3U C13U C70U G128U] | -1.99
GAUCAAUCUGCCCUCAGAGCUCGAGAACAUCUUCGGAUGAAGAGGAGGCAGGCUUUGGUGGCGCGAUAGCGCCAACGUCCUCAACCUCCAAUGCAUCCCACCACAUGAUGAUGCCUGAAAAGCCUUGGUUUUUUG [C3U C40A C56U G120A] | -0.0248
GAUCAAUCUGCCCUCAGAGCUCGAGAACAUCUUCGGAUGCAGAGGAGGAAGGCUUCGGUGGCGCGAUAGCGCCAACGUCCUCAACCUCCAAUGCAUCCCACCACAUGAUGAUGCCUGAAGAGCCUUGGUUUUUUG [C3U C49A] | 0.209
GAUCAAUCUGCCUUUAGAGCUCGAGAACAUCUUCGGAUGCAGAGGAGUCAGGCUUCGGUGGCGCGAUAGCGCCAACGUCCUCAACCUCCAAUGCAUCCCACCACAUGAUGAUACCUGAAGAGCCUUGGUUUUUUG [C3U C13U C15U G48U G113A] | -2.97
GAUCAAUCUGCCCUGAGAGCUCGAGAACAUCUUCGGAUGCAGAGGAGGCAGGCUUCGGUGGCGCGAUAGCGACAACGUCCUCAACCUCCAAUGCAUCCCACCACAUGAUGAUGCCUGAAGAGCCUUGGUUUUUUG [C3U C15G C72A] | -3.04
GAUCAAUCUGCGUUCAGAGCUCGAGAACAUCUUCGGAUGCAGAGGAGGCAGGCUUCGGUGGUGCGAUAGCGCCAACGUCCUCAACCUCCAAUGCAUCCCACCACAUGAUGAUGCCUGAAAAGCCUUGGUUUUUUG [C3U C12G C13U C62U G120A] | 2.11
GAUCAAUCUGCCAUCAGAGCUCGAGAACAUCUUCGGAUUCAGAGGAGGCAGGAUUUGGUGGCGCGAUAGCGCCAACGUCCUCAACCUCCAAUGCAUCCCACCACAUGAUGAUGCCUGAAUAGCCUUGGUUUUUUG [C3U C13A G39U C53A C56U G120U] | -0.266
GAUCAAUCUGCCCUCAGAGCUCGAGAACAUCUUCGGAUGCAGAGGAGGAAGGCUUCGGUGGCGCGAUAGCGCCAACGUCCUCAACCUCCAAAGCAUCCCACCACAUGAUGAUACCUGAAGAGCCUUGGUUUUUUG [C3U C49A U92A G113A] | -2.63
GAUCAAUCUGCACUCAGAGCUCGAGAACAUCUUCGGAUGCAGAGGAGGCAGGCUUCGGUGGCGCGAUAUCGCCAACGUCCUCAACCUCCAAUGCAUCCCACCACAUGAUGAUGCCUAAAGAGCCUUGGUUUUUUG [C3U C12A G69U G117A] | -2.56
GAUCAAUCUGCCCUCAGAGCUCGAGAACAUGUUCGGAUGCAGAGGAGGCAGGCUUCGGUGGCGCGAUAGCGCCAACGUCCUCAACCUCCAAUGCAUCCCACCACAUGAUGAUGCCUGAACAGCCUUGGUUUUUUG [C3U C31G G120C] | -6.61
